From patent publication US20100075394A1 come the findings set out here.

For the test, the target named is ACP-HA labeled via ACP with Cy3. As to the kind of experiment: mock pull-down on magnetic beads from an equimolar mixture of Cy3-ACP-HA and Cy3-ACP-CaM-PCP; SDS-PAGE and in-gel fluorescence scanning; reference is ACP-CaM-PCP.

With “primary-chloride-derivatized 12CA5 antibody immobilized via covalin on magnetic beads displaying BG”, the enrichment of ACP-HA over ACP-CaM-PCP amounted to 80 fold.
